Laboratory results reported in the supplement of paper PMC10724198.
± gives the standard deviation of the averaged measurements.

Assays:
Saccharomyces cerevisiae [1] = test: protein stability index of tFT-peptide fusion (C-terminal peptide) (PSI (0-1 scale)); higher = more stable (slower turnover); conditions: genetic background: wild type; temperature: 30 C
Saccharomyces cerevisiae [2] = test: as above
Experimental: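 MPS profiling in S. cerevisiae of the tFT-X12 degron library: putative degron peptides plus stable controls, 12 aa, fused to the C-terminus of a sfGFP-mCherry timer. Cells are FACS-sorted into 8 mCherry/sfGFP bins and deep-sequenced. PSI runs from 0 (unstable) to 1 (stable). Backgrounds are wild type, das1Δ and doa10Δ at 30 °C, and wild type, das1Δ, cdc34-1 and cdc53-1 at 37 °C; 2-3 technical replicates each.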

[3] = genetic background: cdc34-1, temperature: 37 C
[4] = genetic background: cdc53-1, temperature: 37 C
[5] = genetic background: das1 deletion, temperature: 30 C
[6] = genetic background: das1 deletion, temperature: 37 C
[7] = genetic background: doa10 deletion, temperature: 30 C
[8] = genetic background: wild type, temperature: 30 C
[9] = genetic background: wild type, temperature: 37 C
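Further: PSI is a weighted mean of sequencing reads over stability bins, variants kept only with over 10 reads, mCherry proximal and sfGFP distal, peptide attached via GGGS linker.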

Sequence | protein stability index (Saccharomyces cerevisiae [1]) | protein stability index (Saccharomyces cerevisiae [2]; [3]) | protein stability index (Saccharomyces cerevisiae [2]; [4]) | protein stability index (Saccharomyces cerevisiae [2]; [5]) | protein stability index (Saccharomyces cerevisiae [2]; [6]) | protein stability index (Saccharomyces cerevisiae [2]; [7]) | protein stability index (Saccharomyces cerevisiae [2]; [8]) | protein stability index (Saccharomyces cerevisiae [2]; [9])
FIFCLSCGVWGG | 0.414 ± 0.02 | 0.5052 ± 0.0007 | 0.583 ± 0.027 | 0.478 ± 0.039 | 0.593 ± 0.023 | 0.49 ± 0.026 | 0.466 ± 0.012 | 0.5582 ± 0.0053
FILLFGFSHWVW | 0.4316 ± 0.0023 | 0.449 ± 0.033 | 0.523 ± 0.023 | 0.375 ± 0.028 | 0.5333 ± 0.0017 | 0.364 ± 0.019 | 0.37 ± 0.03 | 0.476 ± 0.036
FILLTLVFGCAS | 0.309 ± 0.025 | 0.188 ± 0.0054 | 0.313 ± 0.025 | 0.228 ± 0.02 | 0.424 ± 0.0066 | 0.196 ± 0.0089 | 0.22 ± 0.035 | 0.375 ± 0.0071
FLAFLEPRVCCA | 0.343 ± 0.013 | 0.23 ± 0.037 | 0.231 ± 0.036 | 0.246 ± 0.019 | 0.354 ± 0.0058 | 0.21 ± 0.0091 | 0.228 ± 0.031 | 0.33 ± 0.029
FLAFSYIRLLFF | 0.237 ± 0.012 | 0.468 ± 0.05 | 0.463 ± 0.019 | 0.454 ± 0.026 | 0.6128 ± 0.0054 | 0.135 ± 0.017 | 0.122 ± 0.023 | 0.178 ± 0.031
FLCWLSFIPLLS | 0.38 ± 0.02 | 0.203 ± 0.0093 | 0.164 ± 0.007 | 0.293 ± 0.034 | 0.366 ± 0.0095 | 0.418 ± 0.019 | 0.256 ± 0.017 | 0.32 ± 0.015
FLFFCGWVSLFG | 0.424 ± 0.024 | 0.408 ± 0.024 | 0.4636 ± 0.0024 | 0.394 ± 0.033 | 0.4966 ± 0.0014 | 0.333 ± 0.0056 | 0.364 ± 0.023 | 0.479 ± 0.025
FLFFMGVGVVLY | 0.295 ± 0.013 | 0.285 ± 0.032 | 0.382 ± 0.029 | 0.314 ± 0.025 | 0.452 ± 0.023 | 0.35 ± 0.039 | 0.325 ± 0.025 | 0.425 ± 0.0071
FLFIFFFFLISF | 0.284 ± 0.018 | 0.208 ± 0.018 | 0.1806 ± 0.00038 | 0.256 ± 0.02 | 0.311 ± 0.027 | 0.344 ± 0.0055 | 0.242 ± 0.021 | 0.295 ± 0.011
FLFLFLFPFSLI | 0.431 ± 0.0054 | 0.525 ± 0.047 | 0.571 ± 0.0084 | 0.476 ± 0.016 | 0.567 ± 0.009 | 0.393 ± 0.0097 | 0.386 ± 0.0079 | 0.4997 ± 0.0009
FLIFGMVDFAVV | 0.331 ± 0.018 | 0.247 ± 0.035 | 0.3554 ± 0.0029 | 0.231 ± 0.04 | 0.3883 ± 0.0012 | 0.202 ± 0.0019 | 0.226 ± 0.019 | 0.387 ± 0.035
FLIFVVIGGVGL | 0.2837 ± 0.0028 | 0.259 ± 0.0043 | 0.395 ± 0.016 | 0.281 ± 0.027 | 0.466 ± 0.013 | 0.2268 ± 0.0012 | 0.276 ± 0.023 | 0.435 ± 0.057
FLLELRFTCSYS | 0.431 ± 0.013 | 0.383 ± 0.026 | 0.454 ± 0.021 | 0.407 ± 0.014 | 0.4415 ± 0.00066 | 0.403 ± 0.013 | 0.406 ± 0.023 | 0.4158 ± 0.0028
FLLFFVLRLLPC | 0.316 ± 0.018 | 0.272 ± 0.0094 | 0.293 ± 0.03 | 0.236 ± 0.035 | 0.396 ± 0.016 | 0.255 ± 0.013 | 0.231 ± 0.026 | 0.376 ± 0.011
FLPGEAVFVYCR | 0.4334 ± 0.0032 | 0.619 ± 0.016 | 0.616 ± 0.037 | 0.372 ± 0.026 | 0.627 ± 0.011 | 0.365 ± 0.017 | 0.391 ± 0.028 | 0.64997 ± 0.00056
FLSVGFSCSFVC | 0.4939 ± 0.00094 | 0.674 ± 0.082 | 0.676 ± 0.034 | 0.599 ± 0.06 | 0.669 ± 0.04 | 0.375 ± 0.024 | 0.4115 ± 0.0017 | 0.609 ± 0.013
FLSVLPLFAFFA | 0.333 ± 0.0081 | 0.581 ± 0.026 | 0.658 ± 0.045 | 0.552 ± 0.025 | 0.68 ± 0.028 | 0.219 ± 0.011 | 0.258 ± 0.014 | 0.4221 ± 0.0032
FLVCTFCRWVWL | 0.233 ± 0.056 | 0.476 ± 0.079 | 0.6 ± 0.039 | 0.448 ± 0.028 | 0.606 ± 0.025 | 0.165 ± 0.023 | 0.162 ± 0.012 | 0.249 ± 0.018
FLVFPLLIQFFL | 0.36 ± 0.019 | 0.2311 ± 0.0022 | 0.303 ± 0.015 | 0.356 ± 0.04 | 0.4346 ± 0.0039 | 0.346 ± 0.0097 | 0.257 ± 0.014 | 0.323 ± 0.014
FPLGAQTWLCLS | 0.318 ± 0.0065 | 0.645 ± 0.084 | 0.714 ± 0.012 | 0.609 ± 0.018 | 0.729 ± 0.022 | 0.199 ± 0.0021 | 0.24 ± 0.032 | 0.466 ± 0.036
